Test [1] concerns the target purified soluble αvβ3 integrin (Millipore) (UniProt P06756 31-992; P05106 27-718).
The target of test [2] is soluble recombinant α5β1 integrin (R&D Systems) (UniProt P08648 42-995; P05556 21-728).
The target of test [3] is purified soluble αvβ5 integrin (Millipore) (UniProt P06756 31-992; P18084 24-719).

These results are taken from patent US20110300579A1 (UNIVERSITY OF SOUTHERN CALIFORNIA, published 2011).

As a reminder, the Kd is the concentration at which binding is half-saturated.

purified soluble αvβ3 integrin (Millipore), sequence (P06756 31-992, chain 1 of 2): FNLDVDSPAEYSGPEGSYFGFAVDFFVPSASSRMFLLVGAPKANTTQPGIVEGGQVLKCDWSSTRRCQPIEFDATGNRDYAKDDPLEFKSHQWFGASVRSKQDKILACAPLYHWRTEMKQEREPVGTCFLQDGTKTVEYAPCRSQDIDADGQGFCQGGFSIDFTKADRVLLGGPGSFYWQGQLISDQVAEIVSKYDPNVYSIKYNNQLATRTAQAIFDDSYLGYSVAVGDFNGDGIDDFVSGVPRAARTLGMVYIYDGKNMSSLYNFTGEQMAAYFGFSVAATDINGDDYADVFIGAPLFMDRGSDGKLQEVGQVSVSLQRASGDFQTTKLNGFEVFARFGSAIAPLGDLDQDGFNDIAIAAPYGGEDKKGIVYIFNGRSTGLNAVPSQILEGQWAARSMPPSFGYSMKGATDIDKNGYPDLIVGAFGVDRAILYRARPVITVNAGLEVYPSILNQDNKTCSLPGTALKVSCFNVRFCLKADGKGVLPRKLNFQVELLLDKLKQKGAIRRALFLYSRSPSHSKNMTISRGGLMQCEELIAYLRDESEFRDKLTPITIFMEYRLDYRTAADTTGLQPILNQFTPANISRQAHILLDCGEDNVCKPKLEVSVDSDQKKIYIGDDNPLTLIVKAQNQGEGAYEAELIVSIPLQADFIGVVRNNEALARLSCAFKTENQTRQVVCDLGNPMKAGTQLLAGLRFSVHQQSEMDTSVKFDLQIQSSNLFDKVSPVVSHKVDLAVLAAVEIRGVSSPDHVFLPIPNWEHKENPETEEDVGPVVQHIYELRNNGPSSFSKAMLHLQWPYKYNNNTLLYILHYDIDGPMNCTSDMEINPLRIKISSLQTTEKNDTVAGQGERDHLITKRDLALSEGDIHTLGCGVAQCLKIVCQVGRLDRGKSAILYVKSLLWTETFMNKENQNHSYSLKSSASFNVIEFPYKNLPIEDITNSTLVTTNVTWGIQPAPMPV
purified soluble αvβ3 integrin (Millipore), sequence (P05106 27-718, chain 2 of 2): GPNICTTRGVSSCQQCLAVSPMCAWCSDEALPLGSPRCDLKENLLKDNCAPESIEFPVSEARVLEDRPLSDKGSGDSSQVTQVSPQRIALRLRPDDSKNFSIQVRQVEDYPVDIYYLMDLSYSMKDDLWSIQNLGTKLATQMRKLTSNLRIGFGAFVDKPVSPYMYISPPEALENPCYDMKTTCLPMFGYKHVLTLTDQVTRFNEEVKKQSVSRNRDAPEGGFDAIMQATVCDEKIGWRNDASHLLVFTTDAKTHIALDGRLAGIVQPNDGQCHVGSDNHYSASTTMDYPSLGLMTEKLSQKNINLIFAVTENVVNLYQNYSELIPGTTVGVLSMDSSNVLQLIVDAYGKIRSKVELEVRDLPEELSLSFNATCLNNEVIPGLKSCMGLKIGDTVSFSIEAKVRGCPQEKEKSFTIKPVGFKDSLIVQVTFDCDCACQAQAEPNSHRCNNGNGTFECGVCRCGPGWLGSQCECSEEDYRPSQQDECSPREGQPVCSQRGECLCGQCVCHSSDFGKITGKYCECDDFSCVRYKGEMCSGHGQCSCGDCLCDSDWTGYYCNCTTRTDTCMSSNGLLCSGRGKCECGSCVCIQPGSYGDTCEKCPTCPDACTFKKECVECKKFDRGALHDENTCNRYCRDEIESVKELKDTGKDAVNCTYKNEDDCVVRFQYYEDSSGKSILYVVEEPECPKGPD
purified soluble αvβ5 integrin (Millipore), sequence (P06756 31-992, chain 1 of 2): as the sequence (P06756 31-992, chain 1 of 2) above
purified soluble αvβ5 integrin (Millipore), sequence (P18084 24-719, chain 2 of 2): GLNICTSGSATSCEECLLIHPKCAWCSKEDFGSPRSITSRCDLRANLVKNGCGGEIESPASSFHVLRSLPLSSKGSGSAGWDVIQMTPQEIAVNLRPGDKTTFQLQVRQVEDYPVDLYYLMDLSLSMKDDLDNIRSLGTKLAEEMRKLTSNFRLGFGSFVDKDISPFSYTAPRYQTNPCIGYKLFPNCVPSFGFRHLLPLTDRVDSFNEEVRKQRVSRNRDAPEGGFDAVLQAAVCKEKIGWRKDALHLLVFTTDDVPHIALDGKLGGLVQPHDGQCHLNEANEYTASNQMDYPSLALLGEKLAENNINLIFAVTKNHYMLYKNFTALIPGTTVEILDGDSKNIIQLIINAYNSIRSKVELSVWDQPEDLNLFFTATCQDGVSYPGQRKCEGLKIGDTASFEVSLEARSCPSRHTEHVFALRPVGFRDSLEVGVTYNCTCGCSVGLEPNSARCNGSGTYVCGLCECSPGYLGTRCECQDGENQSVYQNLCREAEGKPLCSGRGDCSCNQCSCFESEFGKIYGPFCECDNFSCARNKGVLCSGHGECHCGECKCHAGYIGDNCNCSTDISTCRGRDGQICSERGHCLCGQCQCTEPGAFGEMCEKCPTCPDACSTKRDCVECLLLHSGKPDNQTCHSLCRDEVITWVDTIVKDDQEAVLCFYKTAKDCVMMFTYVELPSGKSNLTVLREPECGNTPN
soluble recombinant α5β1 integrin (R&D Systems), sequence (P08648 42-995, chain 1 of 2): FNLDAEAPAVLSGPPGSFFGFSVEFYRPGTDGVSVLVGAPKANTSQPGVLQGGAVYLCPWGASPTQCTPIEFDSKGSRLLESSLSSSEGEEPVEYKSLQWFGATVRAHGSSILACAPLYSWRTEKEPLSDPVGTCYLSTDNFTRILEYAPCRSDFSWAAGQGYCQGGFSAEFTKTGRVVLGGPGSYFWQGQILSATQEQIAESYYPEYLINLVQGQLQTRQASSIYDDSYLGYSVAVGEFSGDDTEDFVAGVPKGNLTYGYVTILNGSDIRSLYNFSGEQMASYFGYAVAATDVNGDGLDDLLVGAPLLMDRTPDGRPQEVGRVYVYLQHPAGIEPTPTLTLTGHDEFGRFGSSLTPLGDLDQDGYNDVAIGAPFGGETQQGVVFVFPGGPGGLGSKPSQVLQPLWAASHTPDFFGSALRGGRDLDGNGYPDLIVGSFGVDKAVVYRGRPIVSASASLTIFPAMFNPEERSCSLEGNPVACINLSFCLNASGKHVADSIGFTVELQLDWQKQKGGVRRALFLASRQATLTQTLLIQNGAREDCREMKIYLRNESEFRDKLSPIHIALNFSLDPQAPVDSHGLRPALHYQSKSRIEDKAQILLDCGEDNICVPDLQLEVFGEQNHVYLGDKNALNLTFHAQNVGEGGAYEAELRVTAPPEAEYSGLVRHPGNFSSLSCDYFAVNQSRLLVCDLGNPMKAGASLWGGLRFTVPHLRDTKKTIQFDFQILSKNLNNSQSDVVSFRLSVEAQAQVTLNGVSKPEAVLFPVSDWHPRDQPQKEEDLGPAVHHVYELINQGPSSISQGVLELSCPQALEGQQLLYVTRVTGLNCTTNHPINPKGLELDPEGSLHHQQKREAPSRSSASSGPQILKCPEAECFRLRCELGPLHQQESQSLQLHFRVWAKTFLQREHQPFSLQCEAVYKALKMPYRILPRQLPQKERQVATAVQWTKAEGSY
soluble recombinant α5β1 integrin (R&D Systems), sequence (P05556 21-728, chain 2 of 2): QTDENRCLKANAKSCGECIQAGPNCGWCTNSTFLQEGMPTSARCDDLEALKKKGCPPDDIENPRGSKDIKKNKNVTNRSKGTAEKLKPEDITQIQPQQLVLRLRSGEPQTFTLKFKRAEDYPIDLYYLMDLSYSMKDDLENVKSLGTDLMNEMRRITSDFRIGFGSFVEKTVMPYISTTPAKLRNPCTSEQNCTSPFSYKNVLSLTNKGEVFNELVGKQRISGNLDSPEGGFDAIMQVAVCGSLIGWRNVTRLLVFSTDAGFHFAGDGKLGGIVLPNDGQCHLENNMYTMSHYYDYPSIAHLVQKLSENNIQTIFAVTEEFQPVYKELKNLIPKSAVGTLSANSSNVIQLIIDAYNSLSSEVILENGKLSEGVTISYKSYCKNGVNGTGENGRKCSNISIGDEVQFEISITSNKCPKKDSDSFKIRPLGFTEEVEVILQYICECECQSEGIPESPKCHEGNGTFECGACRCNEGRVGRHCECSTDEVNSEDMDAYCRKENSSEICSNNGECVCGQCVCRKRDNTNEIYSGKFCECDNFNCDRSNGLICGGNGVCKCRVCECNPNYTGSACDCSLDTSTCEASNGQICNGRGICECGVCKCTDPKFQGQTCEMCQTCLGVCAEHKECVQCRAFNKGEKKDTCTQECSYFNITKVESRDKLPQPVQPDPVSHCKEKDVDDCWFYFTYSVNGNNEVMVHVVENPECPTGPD

B1: Contortrostatin (CN), native, purified from Agkistrodon contortrix contortrix venom (ligand)
chain: DAPANPCCDAATCKLTTGSQCADGLCCDQCKFMKEGTVCRRARGDDLDDYCNGISAGCPRNPFH
Take B1: the values for the Kd in test [1], in test [2] and in test [3] were 6.6 nM, 191 nM and 19.5 nM, respectively.
